Reference: the supplement of paper PMC9233669
This sample holds only a part of the variants without activity.

Columns and labels:
[1] = tested on: biotinyl-Phe-oxazolone; test: self-aminoacylation, catalytic enhancement (BFO) (fold over background); higher = more active; k-Seq, kA / k0A0; sequences stand for … in GGGAAUGGAUCCACAUCUACGAAUUC…UUCACUGCAGACUUGACGAAGCUG
Outline: (§1)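 Catalytic enhancement equals the median kA over the uncatalyzed rate, the latter read from the low-activity peak of a bimodal Gaussian fit. Values of kA came from fitting each sequence's fraction reacted to a pseudo-first-order model, with 1000 bootstraps. Reacted RNA was captured with streptavidin and quantified by triplicate qPCR and Illumina sequencing after 90 minutes at room temperature with 2–1250 μM biotinyl-aminoacyl-oxazolone and 0.43 μM mutagenized RNA pools bearing a 21-nt variable region.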

[2] = tested on: biotinyl-Ile-oxazolone; test: self-aminoacylation, catalytic enhancement (BIO) (fold over background); higher = more active; k-Seq, kA / k0A0; sequences stand for … in GGGAAUGGAUCCACAUCUACGAAUUC…UUCACUGCAGACUUGACGAAGCUG
Outline: as §1

[3] = tested on: biotinyl-Met-oxazolone; test: self-aminoacylation, catalytic enhancement (BMO) (fold over background); higher = more active; k-Seq, kA / k0A0; sequences stand for … in GGGAAUGGAUCCACAUCUACGAAUUC…UUCACUGCAGACUUGACGAAGCUG
Outline: as §1

[4] = tested on: biotinyl-Val-oxazolone; test: self-aminoacylation, catalytic enhancement (BVO) (fold over background); higher = more active; k-Seq, kA / k0A0; sequences stand for … in GGGAAUGGAUCCACAUCUACGAAUUC…UUCACUGCAGACUUGACGAAGCUG
Outline: as §1

[5] = tested on: biotinyl-Leu-oxazolone; test: self-aminoacylation, catalytic enhancement (BLO) (fold over background); higher = more active; k-Seq, kA / k0A0; sequences stand for … in GGGAAUGGAUCCACAUCUACGAAUUC…UUCACUGCAGACUUGACGAAGCUG
Outline: as §1

[6] = tested on: biotinyl-Trp-oxazolone; test: self-aminoacylation, catalytic enhancement (BWO) (fold over background); higher = more active; k-Seq, kA / k0A0; sequences stand for … in GGGAAUGGAUCCACAUCUACGAAUUC…UUCACUGCAGACUUGACGAAGCUG
Outline: as §1

Sequence | self-aminoacylation [1] | self-aminoacylation [2] | self-aminoacylation [3] | self-aminoacylation [4] | self-aminoacylation [5] | self-aminoacylation [6]
CCACACUCCAAGCAAUCGGCC [Fam1B.1 aminoacylation ribozyme variant] | 2.68 | 1.63 | 1.36 | 2.36 | 1.28 | 2.59
AAGUUUCCUAAUAGUCACAAG [Fam3.1 aminoacylation ribozyme variant] | 2.29 | 1.8 | 1.77 | 1.61 | 1.64 | 1.23
CUACUUCAAACAAUCGAUCGG [Fam1A.1 aminoacylation ribozyme variant] | 0.743 | 0.647 | 0.56 | 0.73 | 0.721 | 0.676
AGUACCCUGGUCAACGAGUGA [Fam2.1 aminoacylation ribozyme variant] | 21.6 | 2.91 | 5.55 | 2.63 | 4.71 | 5.71
AUUCACCUAAGUCAUCGGGAG [Fam2.2 aminoacylation ribozyme variant] | 0.578 | 1.07 | 1.2 | 1.49 | 1.81 | 1.14
CUACUUCAAACAAUGGGUCAG [Fam1A.1 aminoacylation ribozyme variant] | 0.92 | 0.6 | 0.648 | 0.589 | 0.651 | 0.5
CUACUUCAGACAAUCGGUCCG [Fam1A.1 aminoacylation ribozyme variant] | 0.81 | 0.811 | 1 | 0.695 | 1.01 | 1.38
CUACUUAAGACAAUCGGUCUG [Fam1A.1 aminoacylation ribozyme variant] | 0.817 | 0.775 | 0.909 | 0.783 | 0.668 | 0.71
AUUACCCUGAUCAACGAGUGA [Fam2.1 aminoacylation ribozyme variant] | 66.4 | 6.3 | 14.6 | 6.16 | 15 | 18.5
AAGUUUGCUGAUAGUCGCGAG [Fam3.1 aminoacylation ribozyme variant] | 6.95 | 1.75 | 1.72 | 1.61 | 2.43 | 1.81
AAGUUUGCUAAUAGUAGCAAG [Fam3.1 aminoacylation ribozyme variant] | 1.22 | 1.04 | 1.02 | 0.993 | 0.95 | 0.96
ACUACCCUGGUGAUCGAGUGA [Fam2.1 aminoacylation ribozyme variant] | 28 | 4.03 | 6.46 | 3.6 | 7.61 | 9.48
CCACACUUAAAGGAAUCGGUC [Fam1B.1 aminoacylation ribozyme variant] | 0.88 | 1.12 | 0.953 | 1.01 | 0.906 | 0.763
CCGCACUUCCAGCAAUCGGUC [Fam1B.1 aminoacylation ribozyme variant] | 0.932 | 1.35 | 0.995 | 2.03 | 1.04 | 0.883
AAGUUCGCUAAUAGUCGCUAG [Fam3.1 aminoacylation ribozyme variant] | 1.34 | 1.48 | 1.53 | 1.4 | 1.47 | 1.45
AAGUUUGCUACUAGUCGCCAG [Fam3.1 aminoacylation ribozyme variant] | 0.986 | 1.27 | 1.26 | 1.1 | 0.749 | 1.91
AUGCACUUAGGUCAUCGGGUG [Fam2.2 aminoacylation ribozyme variant] | 62.8 | 5.29 | 8.73 | 5.03 | 10.6 | 7.92
CCACACCACAAGCAAUCGGUC [Fam1B.1 aminoacylation ribozyme variant] | 0.854 | 1.13 | 0.999 | 1.1 | 0.949 | 0.871
AUUACCCCGUUCAUCGAGUGA [Fam2.1 aminoacylation ribozyme variant] | 7.48 | 2.28 | 4.47 | 2.77 | 3.55 | 5.03
AUUACCAUGGUCAUCGGGUGA [Fam2.1 aminoacylation ribozyme variant] | 96 | 6.52 | 14.7 | 7.28 | 13.6 | 16.2
ACUACCUUGGUCAUCGAGUGA [Fam2.1 aminoacylation ribozyme variant] | 10.5 | 2.96 | 3.77 | 3.23 | 4.02 | 5.82
AUUGCCCUGGACAUCGAGUGA [Fam2.1 aminoacylation ribozyme variant] | 24.8 | 2.41 | 5.71 | 3.11 | 5.58 | 5.92
CCACACUUCAAGCCAUCGUUC [Fam1B.1 aminoacylation ribozyme variant] | 0.848 | 1.08 | 1.03 | 1.35 | 1.24 | 0.897
AUUCACCUAGGUCAGCGAGUG [Fam2.2 aminoacylation ribozyme variant] | 25.3 | 3.44 | 4.93 | 3.34 | 6.37 | 5.84
CUACUUCAAACCAGCGGUCUG [Fam1A.1 aminoacylation ribozyme variant] | 0.715 | 0.921 | 0.722 | 1.13 | 1.09 | 0.677
UUUCACCUAGGUGAUCGGGUG [Fam2.2 aminoacylation ribozyme variant] | 24.3 | 3.55 | 3.5 | 3.67 | 4.15 | 5.69

Sequence | self-aminoacylation [1] | self-aminoacylation [2] | self-aminoacylation [3] | self-aminoacylation [4] | self-aminoacylation [5] | self-aminoacylation [6]
AUUUCCCAGGUCAUCGAGUGA [Fam2.1 aminoacylation ribozyme variant] | 26.3 | 2.89 | 5.06 | 3.4 | 5.63 | 6.32
AUUACCCUGAUCUUCGAGUGA [Fam2.1 aminoacylation ribozyme variant] | 15.7 | 2.56 | 4.57 | 2.74 | 5.04 | 6.11
UUUCACGUAGGUCAUCGGGUG [Fam2.2 aminoacylation ribozyme variant] | 32.2 | 2.89 | 4.24 | 4.25 | 3.88 | 4.06
AUUGUCCUAGGUCAUCGGGUG [Fam2.2 aminoacylation ribozyme variant] | 200 | 14.2 | 30.2 | 13.6 | 39.1 | 27.1
CCACACUUCAAGCAAUCCAUC [Fam1B.1 aminoacylation ribozyme variant] | 0.752 | 0.553 | 0.433 | 0.774 | 0.446 | 0.529
AUUACCCUGGUCAGCGAGUAA [Fam2.1 aminoacylation ribozyme variant] | 0.633 | 1.19 | 1.48 | 1.27 | 1.14 | 0.914
AUUCACCUAUGUCAACGGGUG [Fam2.2 aminoacylation ribozyme variant] | 16.8 | 1.83 | 2.83 | 2.01 | 3.35 | 2.52
CCACUCUUCAAGCAAUGGGUC [Fam1B.1 aminoacylation ribozyme variant] | 0.667 | 0.877 | 0.953 | 0.859 | 0.911 | 0.647
AAGUUUCCUAAAAGUCGCAAG [Fam3.1 aminoacylation ribozyme variant] | 2.23 | 1.7 | 1.64 | 1.57 | 2.06 | 1.71
AUUCUCCUAGCUCAUCGGGUG [Fam2.2 aminoacylation ribozyme variant] | 23.2 | 3.32 | 3.24 | 3.75 | 3.79 | 4.24
CCACACUUCAAGCAAACGGUC [Fam1B.1 aminoacylation ribozyme variant] | 1.02 | 0.624 | 0.511 | 0.755 | 0.535 | 0.599
AUUACCCGGGUCAUCGAGAGA [Fam2.1 aminoacylation ribozyme variant] | 0.475 | 1.22 | 1.05 | 1.22 | 1.01 | 1.24
CCACACUUCAAGUAUUCGGUC [Fam1B.1 aminoacylation ribozyme variant] | 0.932 | 1.63 | 1.42 | 1.64 | 1.39 | 1.52
AUUCCCCUAGGUCAUCGGGUU [Fam2.2 aminoacylation ribozyme variant] | 36.7 | 6.34 | 5.77 | 6.74 | 8.02 | 7.29
AUUCACCUAGGCCAUUGGGUG [Fam2.2 aminoacylation ribozyme variant] | 34.9 | 3.11 | 4.09 | 2.85 | 5.31 | 3.71
AAUACCCUGGUCAUCGGGUGA [Fam2.1 aminoacylation ribozyme variant] | 77.3 | 7.82 | 12.1 | 7.46 | 11.8 | 15.9
AUUCCCCUAGGUAAUCGGGUG [Fam2.2 aminoacylation ribozyme variant] | 90.8 | 7.5 | 10.7 | 6.58 | 16.3 | 11.6
ACGUUUGCUAAUAGUGGCAAG [Fam3.1 aminoacylation ribozyme variant] | 0.738 | 0.853 | 0.75 | 0.741 | 0.804 | 0.59
AAUUUUGCUAAUAGUCUCAAG [Fam3.1 aminoacylation ribozyme variant] | 2.56 | 1.38 | 1.21 | 1.26 | 1.19 | 1.23
AUUAAACUGGUCAUCGAGUGA [Fam2.1 aminoacylation ribozyme variant] | 4.94 | 2.71 | 4.15 | 2.42 | 4.35 | 6.94
AUUACCCUGGUCAACAAGUGA [Fam2.1 aminoacylation ribozyme variant] | 23.2 | 3.48 | 7.83 | 3.85 | 6.6 | 8.34
AUUCACCUAGGAAAUCGGGUG [Fam2.2 aminoacylation ribozyme variant] | 53 | 4.03 | 6.99 | 3.5 | 8.95 | 5.87
AUUACCCUGGGCAUCGAGUUA [Fam2.1 aminoacylation ribozyme variant] | 1.15 | 0.909 | 0.642 | 1.11 | 0.805 | 0.678
AUUCAGCUAAGUCAUCGGGUG [Fam2.2 aminoacylation ribozyme variant] | 24.6 | 2.96 | 3 | 2.96 | 3.99 | 2.81
AAGUUUGCUACUACUCGCAAG [Fam3.1 aminoacylation ribozyme variant] | 0.639 | 0.565 | 0.647 | 0.855 | 0.791 | 0.621
